Where no end group is shown, it is not given here.

We go through nine molecules from patent publication US20170101474A1 (FORMUREX, published 2017).

Assay [1] has as its target T1, Bovine serum albumin (bovine, UniProt P02769 25-607).
T1 construct: Immobilized control protein in SPR; also called BSA
Kind of assay: SPR, BSA immobilized, peptide as analyte.

For assay [2], the target named is T2, Recombinant human EGFR (human, UniProt P00533 25-645, limits assumed).
T2 construct: Immobilized by amine coupling on a carboxymethyl dextran SPR chip; also called epidermal growth factor receptor; surface-immobilized EGFR
Kind of assay: SPR, EGFR immobilized, peptide as analyte, 1:1 model.
Method: (§1) A carboxymethyl dextran gold sensor chip was activated by N-hydroxysuccinimide (NHS) and N-ethyl-N″-[3-(diethylamino)propyl] carbodiimide (EDC) at 25° C. using phosphate buffered saline pH 7.4 with 0.05% tween 20 as running buffer. […] Unreactive sites were blocked by flowing over the chip 1 M ethanolamine pH 8.5 at 10 μL/min for 8 minutes. […] The resulting sensograms were globally fitted using Scrubber2 software (BioLogic Software, Campbell, Australia) in a 1:1 binding model to determine the association rate (kₒₙ), dissociation rate (kd or koff), and dissociation constant KD.

In assay [3] the target is T2, Recombinant human EGFR. Nature of the assay: SPR, EGFR immobilized on the chip, scrambled peptide Pep25 injected; concentrations not given.
Assay [4] deals with T3, EGFR on A431 and MDA-MB-468 cells (UniProt P00533 25-1210, limits assumed).
T3 construct: whole, on cells; also called EGFR overexpressing cell lines; cells which overexpress EGFR
Nature of the assay: confocal microscopy of cells incubated with FITC-labelled scrambled peptide for 30 min at 37 C.
Method: For binding/internalization studies, 5×10⁵ cells were seeded in cover slips in 6 well culture plates overnight. […] Cells were fixed with 4% paraformaldehyde and cover slips were mounted on slides which contain a drop of SlowFade®. Cells were then imaged with an inverted Leica. DMIRE2 fluorescence microscope (Leica Biosystems Richmond Inc., Richmond, USA) using a Yokogawa CSUX1 confocal scanner unit. […] Cells were then centrifuged at 500 g for 5 min. Supernatant was removed and cell pellets were re-suspended in FACS solution. The cell suspension was then analyzed on a Beckman Coulter flow cytometer and data were analyzed using the Cell Questpro. A total of 10000 events were collected monitoring FITC.

In assay [5] the target is T4, HER2 recombinant human protein (human, UniProt P04626 23-652, limits assumed).
T4 construct: Covalently attached to a carboxymethylated dextran SPR chip by EDC/NHS; also called HER2 protein; human epidermal growth factor receptor 2
Kind of assay: SPR, HER2 immobilized, peptide as analyte, 1:1 model.
Method: Then, the chip was blocked by passing EA for 8 minutes at a rate of 10 μL/min. […] Triplicate determinations were done at each concentration. The bound surface was regenerated by sequential injections of 10 mM glycine in PBST (pH 2.5).
The sensorgrams from SPR were globally treated using Scrubber 2® software where all traces were zeroed, cropped, aligned, and referenced. Kinetic constants ka and kd were determined by global fitting analyses of the titration curves using the 1:1 Lagmurian interaction model taking into account the mass transport. The equilibrium dissociation constant (KD) was calculated from the kd/ka ratio.
Both kinetic constants ka and kd were determined by global fitting analyses of the titration curves using the 1:1 Lagmurian interaction model in software Scrubber.

Assay [6] has as its target HER2 on MDA-MB-361 and ZR-75-1 cells (human) (UniProt P04626). Nature of the assay: flow cytometry, FITC-labelled peptide 10 µM, MDA-MB-361 cells (blank cells 4.5±0.2).
The target is the same in assay [7]. Kind of assay: flow cytometry, FITC-labelled peptide 10 µM, ZR-75-1 cells (blank cells 3.2±0.4).
For assay [8], the target named is T3, EGFR on A431 and MDA-MB-468 cells. Nature of the assay: cell-based or functional assay.
The target in assay [9] is T2, Recombinant human EGFR. Nature of the assay: SPR, EGFR immobilized.
Method: as §1

T1 sequence (P02769 25-607 limits assumed): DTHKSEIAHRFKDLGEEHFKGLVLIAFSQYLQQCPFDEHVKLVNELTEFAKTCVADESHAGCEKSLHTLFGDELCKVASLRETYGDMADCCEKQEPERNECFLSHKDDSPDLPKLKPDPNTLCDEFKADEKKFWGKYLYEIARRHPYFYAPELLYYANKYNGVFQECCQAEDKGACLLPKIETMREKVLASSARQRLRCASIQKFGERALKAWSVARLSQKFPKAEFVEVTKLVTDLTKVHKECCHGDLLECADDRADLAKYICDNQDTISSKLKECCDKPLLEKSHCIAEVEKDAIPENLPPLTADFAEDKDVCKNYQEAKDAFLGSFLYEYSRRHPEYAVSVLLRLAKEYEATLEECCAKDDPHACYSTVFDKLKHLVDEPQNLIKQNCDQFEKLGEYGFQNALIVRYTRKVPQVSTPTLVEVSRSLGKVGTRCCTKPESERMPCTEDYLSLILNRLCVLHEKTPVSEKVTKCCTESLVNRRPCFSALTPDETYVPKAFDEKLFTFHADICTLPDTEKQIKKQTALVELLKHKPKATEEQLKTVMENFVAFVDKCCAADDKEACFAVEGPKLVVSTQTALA

In the case of AEYDFYGPGNEGSW (also called No. 24) [Pep24], in assay [1], the binding result is “no binding”. For the same molecule, in assay [2], the Kd came out at 7200 nM, the dissociation rate constant (koff) worked out at 0.103 s⁻¹ and the on-rate constant (kon) turned out to be 14300 M⁻¹ s⁻¹.

B1: Pep25 (peptide)
peptide: SGEWAYDGYEPNFG
modifications: also: FITC label in cell assays, position not given here
notes: Scrambled negative control; Unlabelled in SPR; FITC-conjugated in the cell assays; also called scrambled peptide; scrambled antibody mimic
Regarding B1, the binding result in assay [3] and in assay [4] was “no binding” in each case.

B2: HER2-PEP7 (peptide)
peptide: VGYDTGLRAPNSVGSTKQ
modifications: not fully specified
notes: Designed pertuzumab mimic peptide; Unlabelled in SPR; FITC-labelled in cell assays
For B2, the Kd in [5] was 93 nM.

B3: HER2-PEP22 (peptide)
peptide: TSPQGYPNDAGFLGRESTN
modifications: not fully specified
notes: Unlabelled in SPR; FITC-labelled in cell assays; also called control peptide; FITC-HER2-PEP22
In assay [6], B3 gave an MFI of 22.1 MFI. Besides, the MFI in assay [7] worked out at 19.6 MFI. Also, in assay [5], the Kd worked out at 138000 nM, the koff came to 0.0181 s⁻¹ and the kon worked out at 131 M⁻¹ s⁻¹.
On to WSGENGPGTFYDYEA (also called EGFR-PEP22; No. 22) [Pep22], for which the binding result in assay [1] is recorded as “no binding”. Besides, in assay [2], the Kd turned out to be 595 nM, the koff worked out at 0.0259 s⁻¹ and the kon is 43500 M⁻¹ s⁻¹.

B4: Pep11 (peptide)
peptide: WSGENGPGFYDYEA
modifications: not fully specified
notes: Designed cetuximab mimic peptide for EGFR; Unlabelled in SPR; also called EGFR-PEP11; FITC-Pep11
Take B4: in assay [8], the “IC50 of cytotoxicity (sulforhodamine B assay, 72 h), A431 cells” value came out at 388 nM and the “IC50 of cytotoxicity (sulforhodamine B assay, 72 h), MDA-MB-468 cells” value came to 420 nM. The binding result in assay [1] is reported as “no binding”. Besides, in assay [2], the Kd was found to be 252 nM, the koff came to 0.0252 s⁻¹ and the kon worked out at 100000 M⁻¹ s⁻¹. Moreover, in assay [9], the “fold KD relative to cetuximab” value was about 50 fold.

B5: Pep6 (peptide)
peptide: WSGENGPGYFDYEA
notes: Designed cetuximab mimic peptide for EGFR, made by synthesis; also called No. 6
B5: the binding result in [1] is given as “no binding”. In addition, in assay [2], the Kd is 4800 nM, the koff turned out to be 0.00581 s⁻¹ and the kon was determined as 1210 M⁻¹ s⁻¹.

B6: Pep11-auristatin E PDC (peptide)
peptide: WSGENGPGFYDYEA
modifications: also: auristatin E (as 5-benzoylpentanoic ester) joined through a maleimidocaproyl hydrazone linker to a free thiol of the peptide, thiol position not given here
B6: in assay [8], the “IC50 of cytotoxicity (sulforhodamine B assay, 72 h), A431 cells” value amounted to 0.0026 nM and the “IC50 of cytotoxicity (sulforhodamine B assay, 72 h), MDA-MB-468 cells” value worked out at 0.0013 nM.

B7: HER2-PEP21 (peptide)
peptide: PGNDTGLSRAPENSGFTYQ
modifications: not fully specified
notes: as for B2
Regarding B7, the Kd in [5] worked out at 56 nM.
